From patent US20130251724A1 (GlaxoSmithKline, published 2013)
Where a chain is given by its changes, count along the chain named. Where “and” joins values, the source holds several entries; their conditions need not be identical. Equal values may be shown once. Read-outs that look alike come from different tables or passages of the source.

What was measured:
[1] = molecular target: T1, Human OSM (human, UniProt P13725 26-221); assay: BIAcore kinetics
T1 construct: Recombinant human OSM; also called hOSM; human Oncostatin M
T1 sequence: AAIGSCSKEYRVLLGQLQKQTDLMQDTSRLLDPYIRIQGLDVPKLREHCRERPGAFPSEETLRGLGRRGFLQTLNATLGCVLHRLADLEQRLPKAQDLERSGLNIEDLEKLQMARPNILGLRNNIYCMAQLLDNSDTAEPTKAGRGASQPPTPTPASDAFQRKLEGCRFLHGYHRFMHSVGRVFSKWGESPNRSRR

[2] = molecular target: T2, Cynomolgus OSM (cynomolgus, UniProt A0A2K5VPC6 26-221); assay: BIAcore kinetics
T2 construct: also called Cyno OSM; cynomolgus macaque OSM
T2 sequence: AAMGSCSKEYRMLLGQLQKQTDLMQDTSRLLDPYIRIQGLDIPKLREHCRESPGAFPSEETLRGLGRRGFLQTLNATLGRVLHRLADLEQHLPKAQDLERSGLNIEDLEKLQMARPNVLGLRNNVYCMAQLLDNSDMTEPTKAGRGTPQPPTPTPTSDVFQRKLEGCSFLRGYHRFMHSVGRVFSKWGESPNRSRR

[3] = molecular target: T1, Human OSM; assay: cell-based or functional assay
[4] = molecular target: T2, Cynomolgus OSM; assay: cell-based or functional assay
[5] = molecular target: T1, Human OSM; assay: cell-based or functional assay; remark: listed apart in the source
[6] = molecular target: T2, Cynomolgus OSM; assay: cell-based or functional assay; remark: listed apart in the source
[7] = molecular target: T1, Human OSM; assay: cell-based or functional assay; remark: listed apart in the source
[8] = molecular target: T2, Cynomolgus OSM; assay: cell-based or functional assay; remark: listed apart in the source
[9] = molecular target: Marmoset OSM (marmoset); assay: cell-based or functional assay
[10] = molecular target: T1, Human OSM; assay: BIAcore kinetics, purified antibody
[11] = molecular target: T1, Human OSM; assay: BIAcore kinetics, purified antibody; remark: listed apart in the source
[12] = molecular target: T2, Cynomolgus OSM; assay: BIAcore kinetics, purified antibody
[13] = molecular target: T1, Human OSM; assay: BIAcore kinetics, purified antibody; remark: listed apart in the source
[14] = molecular target: T2, Cynomolgus OSM; assay: BIAcore kinetics, purified antibody; remark: listed apart in the source
[15] = molecular target: T1, Human OSM; assay: BIAcore kinetics, transfection supernatant
[16] = molecular target: T1, Human OSM; assay: human gp130 ELISA, inhibition of OSM binding to gp130
[17] = molecular target: T2, Cynomolgus OSM; assay: as above
[18] = molecular target: T3, Endogenous human OSM (neutrophil-derived) (human, UniProt P13725 26-221, limits assumed); assay: gp130 ELISA with endogenous neutrophil-derived human OSM
T3 construct: Native OSM generated from GM-CSF stimulation of healthy human neutrophils; also called native OSM; endogenous OSM
T3 sequence: T1 sequence

[19] = molecular target: T3, Endogenous human OSM …; assay: as above; remark: listed apart in the source
[20] = molecular target: T1, Human OSM; assay: direct ELISA, human OSM coated at 1 µg/ml, detection with anti-human IgG
Description: Both the 10G8 and 9G2 chimaeras successfully bound to human OSM, to a greater extent than 15E10chimera (15E10c) (FIG. 11). This was a direct ELISA where human OSM was coated at 1 μg/ml and bound antibodies detected using anti-human IgG.

[21] = molecular target: T1, Human OSM; assay: cell-based or functional assay; remark: listed apart in the source
[22] = molecular target: T2, Cynomolgus OSM; assay: cell-based or functional assay; remark: listed apart in the source
[23] = molecular target: T1, Human OSM; assay: BIAcore kinetics, purified antibody; remark: listed apart in the source
[24] = molecular target: T2, Cynomolgus OSM; assay: BIAcore kinetics, purified antibody; remark: listed apart in the source
[25] = molecular target: T1, Human OSM; assay: BIAcore kinetics, transfection supernatant; remark: listed apart in the source
[26] = molecular target: T2, Cynomolgus OSM; assay: BIAcore kinetics, transfection supernatant

B1: 10G8 chimaera (antibody, human IgG1, kappa, V domains shown)
VH: EMQLVESGEGLVEPGGSLKLSCAASGFTFSNYAMSWVRQTPEKSLEWVATISDGGSFTYYLDNVRGRFTISRDNAKNNLYLQMSHLKSDDTAMYYCARDVGHTTFWYFDVWGSGTLVTVSS
VL: DIVLTQSPVFLVVSLGQRATISCRASKSVSAAGYNFMHWYQQKPGQPPKVLIKYASNLESGVPARFSGSGSGTDFTLNIHPVEEEDAVTYYCLHSREFPFTFGGGTNLEIKR
notes: Mouse V regions on human gamma 1 wild type and human kappa constant regions; the entries called VH/VL domain (chimera) are full chains; also called 10G8 chimera; 10G8 Chimæra
B1 was tested, and the Kd [1] was 0.654 nM, the koff [1] was 0.000152 s⁻¹ and the kon [1] was 233000 M⁻¹ s⁻¹. It also gave a Kd [2] of 0.48 nM, a koff [2] of 0.000114 s⁻¹ and a kon [2] of 237000 M⁻¹ s⁻¹. For the same binder, the “KB cell neutralisation assay, mean IC50” value [3] was 0.021 µg/ml and 140 pM, the “KB cell neutralisation assay, mean IC50” value [4] was 0.008 µg/ml and 53 pM and the “KB cell neutralisation assay, mean IC50” value [5] was 0.022 µg/ml and 144 pM. The “KB cell neutralisation assay, mean IC50” value [6] was 0.008 µg/ml and 100 pM, the “KB cell neutralisation assay, mean IC50” value [7] was 0.0052 µg/ml and 35 pM and the “KB cell neutralisation assay, mean IC50” value [8] was 0.0011 µg/ml and 7 pM. For the same binder, the “KB cell neutralisation assay, mean IC50” value [9] was 0.0271 µg/ml and 181 pM, the Kd [10] was 0.407 nM and the koff [10] was 0.000105 s⁻¹. For the same binder, the kon [10] was 257000 M⁻¹ s⁻¹, the Kd [11] was 0.518 nM and the koff [11] was 0.000125 s⁻¹. For the same binder, the kon [11] was 241000 M⁻¹ s⁻¹, the Kd [12] was 0.394 nM and the koff [12] was 9.95e-05 s⁻¹. The kon [12] was 253000 M⁻¹ s⁻¹, the Kd [13] was 0.184 nM and the koff [13] was 7.87e-05 s⁻¹. For the same binder, the kon [13] was 427000 M⁻¹ s⁻¹, the Kd [14] was 0.266 nM and the koff [14] was 6.63e-05 s⁻¹. For the same binder, the kon [14] was 250000 M⁻¹ s⁻¹, the Kd [15] was 0.407 nM and the koff [15] was 0.000103 s⁻¹. The kon [15] was 252000 M⁻¹ s⁻¹, the IC50 [16] was 0.037 µg/mL and 0.247 nM and the IC50 [17] was 0.016 µg/mL and 0.107 nM. For the same binder, the IC50 [18] was 0.009 µg/mL and 0.06 nM, the IC50 [19] was 0.0091 µg/mL and 0.061 nM and the “EC50 (read off the curve)” value [20] was roughly 0.2 nM.

B2: 9G2 chimaera (antibody, human IgG1, kappa, V domains shown)
VH: B1 VH with M2V, E9G, S44R, R65K, S113T
VL: B1 VL with V13I, A32S, L93Q, N107K
notes: Mouse V regions on human gamma 1 wild type and human kappa constant regions; also called 9G2 chimera
B2 showed a Kd [1] of 1.33 nM, a koff [1] of 0.000168 s⁻¹ and a kon [1] of 126000 M⁻¹ s⁻¹. It also gave a Kd [2] of 0.787 nM, a koff [2] of 9.99e-05 s⁻¹ and a kon [2] of 127000 M⁻¹ s⁻¹. The “KB cell neutralisation assay, mean IC50” value [3] was 0.231 µg/ml and 1.5 nM, the “KB cell neutralisation assay, mean IC50” value [4] was 0.031 µg/ml and 207 pM and the IC50 [16] was 0.078 µg/mL and 0.52 nM. The IC50 [17] was 0.028 µg/mL and 0.187 nM, the IC50 [18] was 0.017 µg/mL and 0.113 nM and the “EC50 (read off the curve)” value [20] was roughly 0.4 nM.

B3: Humanised 10G8 H0L1 (antibody, human IgG1, kappa, V domains shown)
VH: EVQLVESGGGLVQPGGSLRLSCAASGFTFSNYAMSWVRQAPGKGLEWVATISDGGSFTYYLDNVRGRFTISRDNAKNSLYLQMNSLRAEDTAVYYCARDVGHTTFWYFDVWGRGTLVTVSS
VL: DIVMTQSPDSLAVSLGERATINCRASKSVSAAGYNFMHWYQQKPGQPPKVLIYYASNLESGVPDRFSGSGSGTDFTLTISSLQAEDVAVYYCLHSREFPFTFGGGTKVEIKR
notes: IgG1 kappa; mature H0 heavy chain and mature L1 light chain; also called Humanised 10G8 H0L1 parent
For B3, the “KB cell neutralisation assay, mean IC50” value [5] was 0.015 µg/ml and 102 pM, the “KB cell neutralisation assay, mean IC50” value [6] was 0.007 µg/ml and 21 pM and the “KB cell neutralisation assay, mean IC50” value [21] was 0.009 µg/ml and 60 pM. For the same binder, the “KB cell neutralisation assay, mean IC50” value [22] was 0.007 µg/ml and 47 pM, the “KB cell neutralisation assay, mean IC50” value [7] was 0.0028 µg/ml and 19 pM and the “KB cell neutralisation assay, mean IC50” value [8] was 0.0014 µg/ml and 9 pM. The “KB cell neutralisation assay, mean IC50” value [9] was 0.0017 µg/ml and 11 pM, the Kd [11] was 0.355 nM and the koff [11] was 0.000137 s⁻¹. The kon [11] was 387000 M⁻¹ s⁻¹, the Kd [12] was 0.251 nM and the koff [12] was 0.000107 s⁻¹. It also gave a kon [12] of 426000 M⁻¹ s⁻¹, a Kd [23] of 0.445 nM and a koff [23] of 0.000151 s⁻¹. It also gave a kon [23] of 340000 M⁻¹ s⁻¹, a Kd [24] of 0.341 nM and a koff [24] of 0.000115 s⁻¹. For the same binder, the kon [24] was 338000 M⁻¹ s⁻¹, the Kd [13] was 0.125 nM and the koff [13] was 8.9e-05 s⁻¹. For the same binder, the kon [13] was 712000 M⁻¹ s⁻¹, the Kd [14] was 0.195 nM and the koff [14] was 8.31e-05 s⁻¹. It also gave a kon [14] of 427000 M⁻¹ s⁻¹, a Kd [15] of 0.25 nM and a koff [15] of 9.95e-05 s⁻¹. The kon [15] was 398000 M⁻¹ s⁻¹, the Kd [25] was 0.461 nM and the koff [25] was 0.000153 s⁻¹. The kon [25] was 332000 M⁻¹ s⁻¹, the Kd [26] was 0.301 nM and the koff [26] was 0.000104 s⁻¹. The kon [26] was 345000 M⁻¹ s⁻¹ and the IC50 [19] was 0.0058 µg/mL and 0.039 nM.
